The target of assay [1] is T1, VWF in human plasma (human, UniProt P04275 764-2813).
T1 construct: Endogenous VWF in donor plasma, not purified; multimeric; also called VWF in plasma; VWF in platelet rich plasma
Briefly: VWF:FVIIIB enzyme immunoassay; human plasma (5 donors) 17 h 37 °C with 200 nM antibody; FVIII bound to captured VWF relative to untreated plasma; ligand FVIII.

Assay [2] has as its target T1, VWF in human plasma. Briefly: VWF:FVIIIB enzyme immunoassay; human plasma (5 donors) 17 h 37 °C with 600 nM antibody; FVIII bound to captured VWF relative to untreated plasma; ligand FVIII.
The target of assay [3] is T2, His-StrepTagII-HRV3C-human VWF-CK-HA-tag (human).
T2 construct: it begins with the VWF signal peptide, whose limits were marked only by underlining that is lost in the text, so it was not cut off; The CK domain forms disulfide-linked homodimers (CK dimer); also called recombinant human CK domain; Human CK
T2 chain: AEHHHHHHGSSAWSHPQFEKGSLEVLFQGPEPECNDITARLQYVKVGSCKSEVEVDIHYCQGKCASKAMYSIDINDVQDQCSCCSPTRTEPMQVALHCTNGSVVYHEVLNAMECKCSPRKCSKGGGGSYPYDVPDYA
Briefly: solution-phase equilibrium binding, free antibody by ELISA; apparent Kd; pH 5.5; mean ± SD, n=2. (In general: ELISA stands for enzyme-linked immunosorbent assay.)
Method: (§1) Following incubation for 30 min at room temperature to establish equilibrium, unbound antibody was quantified by ELISA using the immobilized human CK domain for capture and HRP-conjugated goat anti-human IgG Fc antibody for detection.
(§2) Following a single wash of the plate with 200 μL of wash buffer (TBS containing 0.05% (v/v) Tween-20 and 5 mM CaCl₂), the plate was blocked by incubation with 200 μL blocking buffer (TBS containing 5 mM CaCl₂ and 1% (w/w) BSA) for 1 hour at room temperature. […] Incubation lasted 3 min and was followed by 5-min incubation with 100 μL HRP-conjugated goat anti-human IgG Fc antibody for detection (1 mg/mL stock diluted 1:20,000 in blocking buffer). Before and after addition of a detection antibody, the plate was washed 5 times with 200 μL wash buffer. A chromogenic horseradish peroxidase (HRP) substrate (100 μL) was then added and following color development for 3 min, 100 μL ELISA stop solution were added to quench the reaction. Absorbance was measured at 450 nm with subtraction of the absorbance at 620 nm.
(§3) The standard curve prepared with free antibody was fitted to a Sigmoidal four-parameter logistic (4PL) model.

The target in assay [4] is T3, His-StrepTagII-HRV3C-cyno VWF-CK-HA-tag (cynomolgus monkey).
T3 construct: it begins with the VWF signal peptide, whose limits were marked only by underlining that is lost in the text, so it was not cut off; The CK domain forms disulfide-linked homodimers; also called recombinant cyno CK domain; Cyno CK
T3 chain: T2 chain with N35S, A95P, E113Q, K115E
The assay is described as above.
Method: as §1, §2, §3

For assay [5], the target named is T1, VWF in human plasma. As to the kind of experiment: collagen type III binding ELISA; human plasma (5 donors) 17 h 37 °C with 600 nM antibody; VWF bound to collagen relative to untreated plasma; ligand collagen type III.
Method: Following incubation, collagen binding was determined relative to untreated plasma.
For assay [6], the target named is T2, His-StrepTagII-HRV3C-human VWF-CK-HA-tag. Briefly: solution-phase equilibrium binding, free antibody by ELISA; apparent Kd; pH 7.4; mean ± SD, n=2.
Method: as §1, §2, §3
The target of a further assay is T4, human plasma-derived VWF (human, UniProt P04275 764-2813).
T4 construct: multimeric; also called pd-VWF; Human VWF
The assay is described as above.

Assay [7] addresses T3, His-StrepTagII-HRV3C-cyno VWF-CK-HA-tag. The assay is described as above.
Method: as §1, §2, §3
The target of assay [8] is T1, VWF in human plasma. Briefly: flow cytometry, FITC anti-VWF on platelets; human PRP (2 donors), 0.5 mg/ml ristocetin, 600 nM antibody; relative to the same plasma without antibody; receptor platelet gp1b. (In flow cytometry, cells or beads pass a laser one at a time.)
Method: PRP was prepared by centrifuging the blood at 250 g for 15 min. […] Sample analysis was performed on a flow cytometer. Using forward (FSC) and sideward (SSC) scatter pattern, a gate was placed on the platelets.

Numbering of substitutions follows the chain as printed.

Method for human plasma-derived VWF: as §1, §2, §3

B1: Lib1_P1_A9 OA (antibody, human IgG4 S228P, kappa, F234A L235A)
heavy: QVQLVQSGAEVKKPGASVKVSCKVSGDTLSSYGIHWVRQAPGKGLEWMGGSIPSFGTAIYAQKFQGRVTMTEDTSTDTAYMELSSLKSEDTAVYYCTSEGPWLPFFSFDYWGQGTLVTVSSASTKGPSVFPLAPCSRSTSESTAALGCLVKDYFPEPVTVSWNSGALTSGVHTFPAVLQSSGLYSLSSVVTVPSSSLGTKTYTCNVDHKPSNTKVDKRVESKYGPPCPPCPAPEAAGGPSVFLFPPKPKDTLMISRTPEVTCVVVDVSQEDPEVQFNWYVDGVEVHNAKTKPREEQFNSTYRVVSVLTVLHQDWLNGKEYKCKVSNKGLPSSIEKTISKAKGQPREPQVYTLPPSQEEMTKNQVSLSCAVKGFYPSDIAVEWESNGQPENNYKTTPPVLDSDGSFFLVSRLTVDKSRWQEGNVFSCSVMHEALHNHYTQKSLSLSLG
chain: ESKYGPPCPPCPAPEAAGGPSVFLFPPKPKDTLMISRTPEVTCVVVDVSQEDPEVQFNWYVDGVEVHNAKTKPREEQFNSTYRVVSVLTVLHQDWLNGKEYKCKVSNKGLPSSIEKTISKAKGQPREPQVYTLPPSQEEMTKNQVSLWCLVKGFYPSDIAVEWESNGQPENNYKTTPPVLDSDGSFFLYSRLTVDKSRWQEGNVFSCSVMHEALHNHYTQKSLSLSLG
light: DIQMTQSPSSVSASVGDRVTITCRASQGISRNLAWYQQKPGKAPKLLIYKASSLASGVPSRFSGSGSGTDFTLTISSLQPEDFANYYCQQSFSTPVTFGGGTKVEIKRTVAAPSVFIFPPSDEQLKSGTASVVCLLNNFYPREAKVQWKVDNALQSGNSQESVTEQDSKDSTYSLSSTLTLSKADYEKHKVYACEVTHQGLSSPVTKSFNRGEC
notes: also called monovalent (one-arm) Lib1_P1_A9
With B1, the “VWF:FVIII level (% of control)” value with VWF in human plasma [1] is 91.1 % of control; in the assay with VWF in human plasma [2] it was 93.9 % of control. Also, the Kd amounted to 17.9 nM in assay [3]; 26.4 nM in [4]; 5.3 nM in [6]; 5.7 nM with human plasma-derived VWF; 10.2 nM in assay [7]. In addition, in the assay with VWF in human plasma [5], the “Collagen binding (% control)” value was 106 % control. The “Platelet binding (% control)” value with VWF in human plasma [8] is 89.7 % control.

B2: Lib1_P1_A6 OA (antibody, human IgG4 S228P, kappa, F234A L235A)
heavy: QVQLVQSGAEVKKPGASVKVSCKVSGSTFSNYAIHWVRQAPGKGLEWMGGIVPLSGTAIYAQKFQGRVTMTEDTSTDTAYMELSSLKSEDTAVYYCARDQGESSGWYAIYYGMDVWGQGTTVTVSSASTKGPSVFPLAPCSRSTSESTAALGCLVKDYFPEPVTVSWNSGALTSGVHTFPAVLQSSGLYSLSSVVTVPSSSLGTKTYTCNVDHKPSNTKVDKRVESKYGPPCPPCPAPEAAGGPSVFLFPPKPKDTLMISRTPEVTCVVVDVSQEDPEVQFNWYVDGVEVHNAKTKPREEQFNSTYRVVSVLTVLHQDWLNGKEYKCKVSNKGLPSSIEKTISKAKGQPREPQVYTLPPSQEEMTKNQVSLSCAVKGFYPSDIAVEWESNGQPENNYKTTPPVLDSDGSFFLVSRLTVDKSRWQEGNVFSCSVMHEALHNHYTQKSLSLSLG
chain: B1 chain
light: DIQMTQSPSSVSASVGDRVTITCRASQGIGTWLAWYQQKPGKAPKLLIYGSSSRASGVPSRFSGSGSGTDFTLTISSLQPEDFANYYCQQSYGKPTFGGGTKVEIKRTVAAPSVFIFPPSDEQLKSGTASVVCLLNNFYPREAKVQWKVDNALQSGNSQESVTEQDSKDSTYSLSSTLTLSKADYEKHKVYACEVTHQGLSSPVTKSFNRGEC
notes: also called monovalent (one-arm) Lib1_P1_A6
Regarding B2, the entries for the “VWF:FVIII level (% of control)” value with VWF in human plasma [1] and in the assay with VWF in human plasma [2] were 89.7 % of control and 88.6 % of control, respectively. Further, the Kd is 8.2 nM in assay [3]; 13 nM in assay [4]; 2.7 nM in [6]; 2.7 nM with human plasma-derived VWF; 3.4 nM in [7]. In the assay with VWF in human plasma [5], the “Collagen binding (% control)” value is 103 % control. Further, the “Platelet binding (% control)” value in the assay with VWF in human plasma [8] came to 69.2 % control.

The record behind these values is patent US20250154283A1 (published 2025).
